T1: huBeta_Klotho (1-301, 509-743, 967-1044) (muBeta KLOTHO 302-506, 742-964) (human; murine, UniProt Q86Z14 1-1044)
T1 construct: also called Chimera 14; Construct 14
T1 chain: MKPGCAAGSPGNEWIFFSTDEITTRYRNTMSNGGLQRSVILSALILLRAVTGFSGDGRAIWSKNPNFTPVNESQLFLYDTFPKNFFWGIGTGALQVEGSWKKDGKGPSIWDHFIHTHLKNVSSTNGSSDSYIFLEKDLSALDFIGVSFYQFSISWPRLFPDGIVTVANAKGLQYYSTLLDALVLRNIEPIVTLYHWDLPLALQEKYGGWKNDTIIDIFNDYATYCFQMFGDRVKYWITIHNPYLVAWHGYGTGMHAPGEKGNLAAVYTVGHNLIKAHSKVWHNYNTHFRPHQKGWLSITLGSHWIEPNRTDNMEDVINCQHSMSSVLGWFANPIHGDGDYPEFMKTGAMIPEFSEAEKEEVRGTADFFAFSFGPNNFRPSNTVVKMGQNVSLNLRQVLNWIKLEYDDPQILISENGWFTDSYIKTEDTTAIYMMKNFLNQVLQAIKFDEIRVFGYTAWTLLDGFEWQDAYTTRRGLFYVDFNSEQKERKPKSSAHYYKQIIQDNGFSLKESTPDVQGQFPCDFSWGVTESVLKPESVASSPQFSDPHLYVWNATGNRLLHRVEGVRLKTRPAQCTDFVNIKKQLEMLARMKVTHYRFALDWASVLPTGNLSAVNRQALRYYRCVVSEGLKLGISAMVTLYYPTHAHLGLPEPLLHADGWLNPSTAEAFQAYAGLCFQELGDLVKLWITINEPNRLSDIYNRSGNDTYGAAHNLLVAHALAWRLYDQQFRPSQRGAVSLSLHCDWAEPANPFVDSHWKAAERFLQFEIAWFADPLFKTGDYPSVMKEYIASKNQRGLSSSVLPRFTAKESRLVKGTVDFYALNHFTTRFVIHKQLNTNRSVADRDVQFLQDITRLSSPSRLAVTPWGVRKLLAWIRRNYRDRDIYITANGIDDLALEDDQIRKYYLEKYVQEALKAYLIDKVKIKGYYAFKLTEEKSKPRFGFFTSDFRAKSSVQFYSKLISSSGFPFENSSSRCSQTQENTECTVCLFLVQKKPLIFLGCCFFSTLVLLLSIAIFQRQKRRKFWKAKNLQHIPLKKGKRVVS

T2: murine β-Klotho (murine, UniProt Q99N32 1-1043)
T2 construct: Full length (GenBank NP-112457), transiently expressed on HEK-293T cells; also called mu β-klotho; mouse β-Klotho
T2 sequence: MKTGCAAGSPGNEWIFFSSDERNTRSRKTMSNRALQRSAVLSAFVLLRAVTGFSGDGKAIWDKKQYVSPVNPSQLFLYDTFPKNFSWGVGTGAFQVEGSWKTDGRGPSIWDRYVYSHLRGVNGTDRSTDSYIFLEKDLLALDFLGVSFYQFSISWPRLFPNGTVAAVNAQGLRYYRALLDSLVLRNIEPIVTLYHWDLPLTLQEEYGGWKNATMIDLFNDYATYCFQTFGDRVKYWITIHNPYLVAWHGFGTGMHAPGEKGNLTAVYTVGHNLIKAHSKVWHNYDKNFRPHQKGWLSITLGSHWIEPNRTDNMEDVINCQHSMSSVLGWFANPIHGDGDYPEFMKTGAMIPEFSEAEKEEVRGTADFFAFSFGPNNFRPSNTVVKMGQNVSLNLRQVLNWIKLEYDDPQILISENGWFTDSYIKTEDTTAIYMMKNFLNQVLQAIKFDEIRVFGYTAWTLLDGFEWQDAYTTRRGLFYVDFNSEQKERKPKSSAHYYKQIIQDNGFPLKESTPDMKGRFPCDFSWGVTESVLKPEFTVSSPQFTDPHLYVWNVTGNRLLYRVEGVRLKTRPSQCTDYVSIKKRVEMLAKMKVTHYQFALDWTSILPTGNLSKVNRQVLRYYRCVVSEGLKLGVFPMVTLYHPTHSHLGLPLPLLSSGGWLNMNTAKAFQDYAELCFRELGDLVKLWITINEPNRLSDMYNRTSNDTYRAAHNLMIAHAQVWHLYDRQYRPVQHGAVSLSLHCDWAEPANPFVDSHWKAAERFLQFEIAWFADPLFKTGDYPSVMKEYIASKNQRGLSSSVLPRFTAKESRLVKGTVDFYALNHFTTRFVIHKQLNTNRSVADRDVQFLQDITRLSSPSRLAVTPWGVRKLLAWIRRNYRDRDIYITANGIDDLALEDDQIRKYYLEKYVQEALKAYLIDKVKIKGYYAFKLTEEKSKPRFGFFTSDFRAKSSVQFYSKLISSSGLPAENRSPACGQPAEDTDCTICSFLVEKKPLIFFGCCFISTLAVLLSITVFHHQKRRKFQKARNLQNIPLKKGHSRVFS


Key:
[1] = biological target: T3, cynomologous monkey FGFR1c/cynomologous monkey β-Klotho (co-transfected) (cynomologous monkey); experiment: flow cytometry, transfected HEK293T; mock-transfected cells 648
T3 construct: whole, on cells; also called Cyno FGFR1c/Cyno β-Klotho
Method: (§1) This solution was then added dropwise to 10 million HEK293T cells in 10 ml of media. 24 hours following transfection, the cells were washed and 50,000 cells were stained with each primary antibody, 50 μl of unpurified hybridoma supernatant was diluted 1:2 and used for staining cells. After a one hour incubation at 4° c., the cells were washed and an anti-Human Fc-specific secondary was added. Stained cells were then analyzed on a flow cytometer.

human FGFR1c [2] = biological target: T4, human FGFR1c (human, UniProt P11362 22-822); experiment: as above
T4 construct: Full length (GenBank NP-075598), expressed on transfected 293T cells; also called huFGFR1c; FGFR1c alone
Method: as §1

[3] = biological target: T5, human FGFR1c/human β-Klotho complex (FGF21 receptor) (human, UniProt P11362 22-822); experiment: as above
T5 construct: Both full-length proteins co-expressed on cells (HEK293T, CHO, L6); also called HuFGFR1c/Hu β-Klotho; huFGF21R
Method: as §1

[4] = biological target: T1, huBeta_Klotho (1-301, 509-743, …); experiment: flow cytometry, transfected HEK-293T
Method: as §1

murine β-Klotho = biological target: T2, murine β-Klotho; experiment: flow cytometry, transfected HEK-293T
Method: as §1

human FGFR1c [5] = biological target: T4, human FGFR1c; experiment: flow cytometry, transfected HEK293T
[6] = biological target: T3, cynomologous monkey FGFR1c/cynomologous …; experiment: flow cytometry, transfected HEK293T; mock-transfected cells 723
Method: as §1

human FGFR1c [7] = biological target: T4, human FGFR1c; experiment: as above
Method: as §1

[8] = biological target: T5, human FGFR1c/human β-Klotho complex …; experiment: as above
Method: as §1

human FGFR1c [9] = biological target: T4, human FGFR1c; experiment: flow cytometry, transfected HEK293T; mock-transfected cells 688
Method: as §1

Binder | GeoMean [1] | GeoMean (human FGFR1c [2]) | GeoMean [3] | binding result [4] | binding result (murine β-Klotho) | binding result (human FGFR1c [5]) | GeoMean [6] | GeoMean (human FGFR1c [7]) | GeoMean [8] | GeoMean (human FGFR1c [9])
49G3.3 (antibody, V domains shown) VH: QVTLKESGPVLVKPTETLTLTCTVSGFSLSNPRMGVSWIRQPPGKALEWLTHIFSNDEKSYSTSLKSRLTISKDTSKSQVVLSMTNMDPVDTATYYCVRVDTLNYHYYGMDVWGQGTTVTVSS VL: DIQMTQSPSSLSASIGDRVTITCQASQGISNYLNWYQQKPGKAPKLLIYDASNLETGVPSRFSGSGSGTDFTFTISSLQPEDIATYYCHQYDDLPLTFGGGTKVEIRR | 25900 | 706 | 17900 | no binding | no binding | no binding | – | – | – | –
67F5.1 (antibody, V domains shown) VH: QVQLKESGPGLVKPSETLSLTCTVSGGSISSYYWSWIRQPPGKGLEWIGYIYYSGNTNYNPSLKSRVTISVDTSKNQFSLKLSSVTAADTAVYYCAREYYYGSGSYYPWGQGTLVTVSS VL: EIVMTQSPATLSVSPGERVTLSCRASQSVSSNLAWYQQKPGQAPRLLIHGSSNRAIGIPARFSGSGSGTEFTLTISSLQSADFAVYNCQQYEIWPWTFGQGTKVEIKR | – | – | – | no binding | no binding | no binding | – | – | – | –
51E5.1 (antibody, V domains shown) VH: QVQLQQWGAGLLKPSETLSLTCAVYGGSFSGYYWSWIRQPPGKGLEWIGELDHSGSINYNPSLKSRVTISVDTSKNQFSLKLTSVTAADTAVYYCARVLGSTLDYWGQGTLVTVSS VL: DIQMTQSPSSLSASVGDRVTITCRASQDIRNDLGWYQQKPGKAPNRLIYAASSLQFGVPSRFSGSGSGTEFTLTISSLQPEDFATYYCLQHSSYPLTFGGGTRVEIKR | – | – | – | no binding | no binding | no binding | 36500 | 747 | 21000 | –
66G2.1 (antibody, V domains shown) VH: QVQLVESGGGVVQPGRSLRLSCAASGFTFSSYGMHWVRQAPGKGLEWVAGISYDGSNKNYADSVKGRITISRDNPKNTLYLQMNSLRAEDTAVYYCATTVTKEDYYYYGMDVWGQGTTVTVSS VL: DIQMTQSPSSLSASVGDRVTITCRASQGIRNDLGWYQQKPGKAPKRLIYAASNLQSGVPSRFSGSGSGTKFTLTINSLQPEDFATYYCLQLNGYPLTFGGGTKVEIKR | – | – | – | no binding | no binding | no binding | – | – | – | –

Next, values leading:

GeoMean [1] | GeoMean (human FGFR1c [2]) | GeoMean [3] | binding result [4] | binding result (murine β-Klotho) | binding result (human FGFR1c [5]) | GeoMean [6] | GeoMean (human FGFR1c [7]) | GeoMean [8] | GeoMean (human FGFR1c [9]) | Binder
– | – | – | no binding | no binding | no binding | – | – | – | – | 65C3.1 (antibody, V domains shown) VH: QVQLQESGPGLVKPSETLSLTCTVSGGSISSYYWSWIRQPPGKGLEWIGYIYYTGSTNYNPSLKSRVTISVDTSKNQFSLKLSSVTAADTAVYYCAREYYYGSGSYYPWGQGTLVTVSS VL: EMVMTQSPATLSVSPGERATLSCRASQSVSSQLAWYQEKPGRAPRLLIYGASNRAIDIPARLSGSGSGTEFTLTISSLQSEDFAVYYCQQYNNWPWTFGQGTKVEFKR
– | – | – | no binding | no binding | no binding | – | – | – | 780 | 67C10.1 (antibody, V domains shown) VH: EVQLVQSGAEVKKPGESLKISCQGSGYSFSSYWIGWVRQMPGKGLEWMGIIYPGDSDTRYSPSFQGQVTISADKSINTAYLQWSSLKASDTAIYYCARRASRGYRYGLAFAIWGQGTMVTVSS VL: DFVMTQTPLSLPVTPGEPASISCRSSQSLLNSDDGNTYLDWYLQKPGQSPQLLIYTLSYRASGVPDRFSGSGSGTDFTLKISRVEAEDVGVYYCMQRIEFPITFGQGTRLEIKR
